Data on two molecules can be found in patent US20210388096A1 (Astellas, published 2021).

The target in assay [1] is T1, mouse Fn14-mouse Fc fusion protein (mouse, UniProt Q9CR75 28-75).
T1 construct: range 1-75; Fn14 part cloned via EcoRI/EcoRV into the multicloning site of pFUSE-mIgG2B-Fc1; not shown: mouse Fc region: mIgG2B-Fc region of vector pFUSE-mIgG2B-Fc1 (InvivoGen)
Kind of assay: ELISA, Fn14-Fc fusion coated on plate, HRP anti-human kappa detection. On the procedure:
(§1) Binding activities of 4-1h and 4-1m acquired in Example 4 to a Fn14 protein were evaluated. The human Fn14-human Fc fusion protein and the mouse Fn14-mouse Fc fusion protein acquired in Example 1 were diluted in phosphate buffered saline (PBS) at 1 μg/mL and added to a MaxiSorp 384-well transparent plate (Nunc, 464718) at 15 μL/well. Incubation was performed overnight at 4° C. for Immobilization. On the next day, the solid phase liquid was removed, and washing was performed with a 0.05% Tween-20-containing Tris-buffered saline (TBS-T). PBS containing 20% Blocking One (Nacalai tesque, Inc., 03953-95) was added thereto at […]. The resultant was left at room temperature for 1 hour, and then washed with TBS-T. A dilution series of 4-1h or 4-1m acquired in Example 4 was prepared by dilution in 12 steps with a 4-fold common ratio from a maximum concentration of 30 μg/mL using TBS-T containing 5% Blocking One (hereinafter, referred to as a diluent), and added at 20 μL/well. […] Then, the reaction was stopped by adding a 2M sulfuric acid, and the absorbance at 450 nm was measured with SpectraMax Paradigm (Molecular Devices, LLC). The test was performed in duplicate, and EC₅₀ values were calculated by 4-parameter logistic curve fitting.

The target of assay [2] is T2, human Fn14-human Fc fusion protein (human, UniProt Q9NP84 28-79).
T2 construct: range 1-79; Purified from CHO-K1SV culture supernatant; coated on the ELISA plate
T2 sequence: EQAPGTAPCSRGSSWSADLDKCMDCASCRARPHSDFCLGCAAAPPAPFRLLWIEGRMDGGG
The description is as above. How it is done: as §1

Assay [3] has as its target T3, human Fn14 on cells (NFkB/HEK293 reporter cells, A375 cells) (human, UniProt Q9NP84 28-129).
T3 sequence (looked up): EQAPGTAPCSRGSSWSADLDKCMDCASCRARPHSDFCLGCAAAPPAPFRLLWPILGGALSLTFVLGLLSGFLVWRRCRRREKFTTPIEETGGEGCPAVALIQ
Put plainly: cell-based or functional assay.

Assay [4] addresses T1, mouse Fn14-mouse Fc fusion protein. Put plainly: ELISA, Fn14-Fc fusion coated on plate, HRP anti-mouse kappa detection. On the procedure: as §1
Assay [5] concerns the target T2, human Fn14-human Fc fusion protein. The assay is described as above. How it is done:
as §1

T1 sequence (Q9CR75 28-75 limits assumed): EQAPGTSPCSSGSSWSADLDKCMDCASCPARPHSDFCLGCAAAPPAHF

B1: fully humanized anti-human Fn14 antibody 4-1h (antibody, human IgG1, kappa, L234A L235A, V domains shown)
VH: QVQLQQWGAGLLKPSETLSLTCAVYGGSFSGYYWSWIRQPPGKGLEWIGEINHRGSTNSNPSLKSRDTISVDTSKNQFSLRLRSVTAADTAVYYCAREGISGSMGIYDYSGMDVWGQGTTVTVSS
VL: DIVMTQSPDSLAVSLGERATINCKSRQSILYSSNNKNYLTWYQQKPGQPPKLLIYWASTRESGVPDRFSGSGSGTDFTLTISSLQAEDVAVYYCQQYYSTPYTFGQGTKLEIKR
modifications: most of the purified antibodies had pyroglutamylation at the N terminal of the heavy chain and deletion of lysine at the C terminal (Example 5)
notes: human kappa light chain; Expressed in CHO-K1SV cells; also called fully humanized antibody of 4-1
As usually defined, the EC50 is the concentration that produces a half-maximal response. For the molecule B1, the values for the concentration giving a half-maximal response (EC50) in assay [1] and in assay [2] were 0.0232 µg/mL and 0.0304 µg/mL, respectively. Moreover, the “IC50 (ng/mL), inhibition of Tweak-induced NFkB activation (luciferase reporter, NFkB/HEK293 cells), geometric mean of three trials” value in assay [3] stood at 41.5 ng/mL.

B2: murinized anti-human Fn14 antibody 4-1m (antibody, mouse IgG2a, kappa, V domains shown)
VH: DVQLQESGPGLVKPSQSLSLTCAVYGGSFSGYYWSWIRQFPGNKLEWMGEINHRGSTNSNPSLKSRISITVDTSKNQFFLQLNSVTTEDTATYYCAREGISGSMGIYDYSGMDVWGQGTLVTVSA
VL: DIVMSQSPSSLAVSVGEKVTMSCKSRQSILYSSNNKNYLTWYQQKPGQSPKLLIYWASTRESGVPDRFTGSGSGTDFTLTISSVKAEDLAVYYCQQYYSTPYTFGSGTKLEIKR
notes: Framework regions of 4-1h partially substituted with mouse FR; mouse kappa light chain; also called murinized antibody of 4-1h
As to B2, the EC50 in assay [4] was 0.0165 µg/mL; in assay [5], 0.0182 µg/mL.
